Source: article PMC8402611, “Generation and Characterization of a Spike Glycoprotein Domain A-Specific Neutralizing Single-Chain Variable Fragment against Porcine Epidemic Diarrhea Virus” (Vaccines, 2021)

What was measured:
[1] = target: T1, ectodomain of the S protein of PEDV (GeneBank no. HC070225-S) (Porcine epidemic diarrhea virus, …, UniProt A0A1Y0DDF5); assay: retention on a 100 kDa MWCO spin column (called immunoprecipitation pull-down assay); 25 pmol S protein with 125 pmol scFv, 37 C for 3 h; 100 kDa MWCO filtration, 10 washes with dPBS; SDS-PAGE with Coomassie; control of scFv alone; conditions: both partners purified
T1 construct: spike (S) glycoprotein of porcine epidemic diarrhea virus, ectodomain; also called PEDV S protein; purified trimeric PEDV S glycoprotein; source: Expi293F cells, secreted, purified from the culture medium

[2] = target: T2, S protein of PEDV-CV777 (G1 PEDV) (Porcine epidemic diarrhea virus, CV777 …, UniProt H2DFZ6); assay: immunostaining of cells or tissue; ICC (HRP/DAB) and IFA (FITC) on PEDV-infected Vero cells fixed with 80% acetone; scFv 5 ug/mL in PBS for 1 h, detected by anti-V5 antibody; PBS blank as background control; conditions: one partner purified
T2 construct: spike (S) protein of porcine epidemic diarrhea virus strain CV777; stood on infected cells and on purified virions; The antigen in the assays was the infected cell or the whole virion; also called G1 PEDV S protein; historic vaccine strain; source: PEDV-CV777 in infected Vero cells (acetone-fixed); purified PEDV-CV777 virions
T2 sequence (Q91AV1 26-1383): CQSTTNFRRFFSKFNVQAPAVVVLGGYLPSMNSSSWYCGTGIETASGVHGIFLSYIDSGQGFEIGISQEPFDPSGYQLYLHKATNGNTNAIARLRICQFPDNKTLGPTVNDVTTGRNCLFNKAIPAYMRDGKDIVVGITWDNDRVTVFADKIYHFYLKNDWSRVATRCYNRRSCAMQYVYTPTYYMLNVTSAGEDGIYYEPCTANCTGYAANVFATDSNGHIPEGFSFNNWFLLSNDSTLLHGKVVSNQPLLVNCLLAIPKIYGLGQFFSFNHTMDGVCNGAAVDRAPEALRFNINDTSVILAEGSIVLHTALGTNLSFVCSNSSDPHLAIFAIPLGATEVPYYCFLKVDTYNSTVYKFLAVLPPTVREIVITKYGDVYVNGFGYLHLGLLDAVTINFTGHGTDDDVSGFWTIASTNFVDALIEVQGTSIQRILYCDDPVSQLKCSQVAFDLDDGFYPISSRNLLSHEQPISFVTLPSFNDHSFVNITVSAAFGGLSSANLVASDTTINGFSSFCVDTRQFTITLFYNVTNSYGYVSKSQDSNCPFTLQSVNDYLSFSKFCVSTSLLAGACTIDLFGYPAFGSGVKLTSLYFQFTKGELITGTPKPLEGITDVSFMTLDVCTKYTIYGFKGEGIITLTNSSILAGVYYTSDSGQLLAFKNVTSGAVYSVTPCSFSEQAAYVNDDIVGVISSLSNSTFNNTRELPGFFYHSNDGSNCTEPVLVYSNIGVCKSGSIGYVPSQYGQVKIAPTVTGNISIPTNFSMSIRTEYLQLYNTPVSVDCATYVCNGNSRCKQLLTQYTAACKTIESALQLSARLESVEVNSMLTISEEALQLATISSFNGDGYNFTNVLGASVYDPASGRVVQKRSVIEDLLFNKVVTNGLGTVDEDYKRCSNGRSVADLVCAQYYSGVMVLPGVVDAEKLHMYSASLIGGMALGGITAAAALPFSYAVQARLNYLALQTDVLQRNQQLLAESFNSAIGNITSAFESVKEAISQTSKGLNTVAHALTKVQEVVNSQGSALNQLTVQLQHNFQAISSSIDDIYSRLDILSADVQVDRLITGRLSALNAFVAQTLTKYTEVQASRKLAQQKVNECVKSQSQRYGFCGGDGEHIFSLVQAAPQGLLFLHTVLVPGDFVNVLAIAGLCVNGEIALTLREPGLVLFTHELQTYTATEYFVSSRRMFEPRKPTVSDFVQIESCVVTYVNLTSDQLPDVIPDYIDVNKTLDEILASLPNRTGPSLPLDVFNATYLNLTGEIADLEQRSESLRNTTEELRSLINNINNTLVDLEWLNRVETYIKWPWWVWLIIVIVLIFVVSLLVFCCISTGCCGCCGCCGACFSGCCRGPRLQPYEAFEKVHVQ

B1: recombinant scFv of the PEDV S1^A-specific neutralizing monoclonal antibody E10E-1-10 (scFv, V domains shown)
VH: QVQLQQSGAELARPGTSVKMSCKASGYTFTNYMMHWIKQRPGQGLEWIGYINPSTGYTNYNQKFKDKATLTADKSSSTAYVQLNILTSEDSAVYYCATSTLITGDYWGQGTTLTVSS
VL: NIVLTQSPKSMSMSVGERVTLSCKASENVGTYVSWYQQKPKQSPKLLIYGTFNRYTGVPDRFTGSGSATDFTLTISSVQAEDLADYHCGQSYNYPFTFGSGTKLEIK
notes: (G4S)3 linker; About 30 kDa; The order VL, linker, VH follows the order in which the methods name the regions; also called E10E-1-10 scFv; anti-PEDV S1^A scFv; source: Expi293F cells, transfected, secreted; purified from the supernatant (IMAC on cobalt resin, SEC on Superdex 75 Increase)
B1: binds [1]; binds [2].
